According to publication PMC2447818:

Molecular target: GFP-VIM (lens vimentin fused to green fluorescence protein) (UniProt P08670)
Assay: FRET or BRET; FRET acceptor photobleaching by confocal laser scanning microscopy in living HeLa cells, 48 h after co-transfection; GFP fusion as donor, RFP fusion as acceptor; RFP bleached at 543 nm for 45 s in a region of interest or a whole cell; E=1 – F(GFP-min)/F(GFP-max)

Sequence of GFP-VIM (lens vimentin fused to green fluorescence protein) (P08670 2-466): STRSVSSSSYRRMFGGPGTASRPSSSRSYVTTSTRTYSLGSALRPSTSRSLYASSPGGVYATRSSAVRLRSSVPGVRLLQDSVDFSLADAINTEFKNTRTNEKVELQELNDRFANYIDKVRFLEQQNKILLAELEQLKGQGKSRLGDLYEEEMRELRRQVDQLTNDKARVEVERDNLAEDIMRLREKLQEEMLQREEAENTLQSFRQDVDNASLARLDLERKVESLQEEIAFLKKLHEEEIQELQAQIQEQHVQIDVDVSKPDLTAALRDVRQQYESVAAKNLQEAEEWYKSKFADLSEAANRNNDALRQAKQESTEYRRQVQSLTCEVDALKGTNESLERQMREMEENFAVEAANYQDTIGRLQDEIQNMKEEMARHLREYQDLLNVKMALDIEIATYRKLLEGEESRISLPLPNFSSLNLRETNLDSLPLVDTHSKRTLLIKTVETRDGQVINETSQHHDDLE
Sequence of RFP-αB (wild-type αB-crystallin fused to red fluorescence protein) (P02511 whole entry, the tested form may be a part): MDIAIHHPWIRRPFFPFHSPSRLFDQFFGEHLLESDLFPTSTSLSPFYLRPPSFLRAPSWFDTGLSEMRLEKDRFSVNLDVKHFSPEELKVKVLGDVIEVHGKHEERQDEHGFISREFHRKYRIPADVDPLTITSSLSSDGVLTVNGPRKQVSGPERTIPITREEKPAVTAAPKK

FRET efficiency (one representative cell): 9.5%
Substance: RFP-αB (wild-type αB-crystallin fused to red fluorescence protein) (from UniProt P02511 1-175) (natural protein)
